Experimental data as given in patent publication CN111690063A (UNIV BEIJING, dated 2020).

Legend:
粒细胞-巨噬细胞集落刺激因子 (human …) [1] = biological target: T1, 粒细胞-巨噬细胞集落刺激因子 (human granulocyte-macrophage colony-stimulating factor, GM-CSF) (human, UniProt P04141 18-144); experiment: Biolayer interferometry type assay: GM-CSF loaded on SA sensor, nanobody at 1000, 500 and 250 nmol, 30℃
T1 construct: also called GM-CSF蛋白

粒细胞-巨噬细胞集落刺激因子 (human …) [2] = biological target: T1, 粒细胞-巨噬细胞集落刺激因子 (human …); experiment: Not stated at this place (summary of advantages); conflicts with the value in Example 4

T1 sequence (P04141 18-144 limits assumed): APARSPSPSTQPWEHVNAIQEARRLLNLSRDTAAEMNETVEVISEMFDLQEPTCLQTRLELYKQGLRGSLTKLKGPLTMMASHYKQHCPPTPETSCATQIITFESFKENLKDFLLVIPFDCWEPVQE

B1: 抗GM-CSF纳米抗体G1 (VHH)
VHH: QLQLVESGGGLVQAGGSLRLSCAVSGRPSNVYDMGWFRRVPGKESRLMAYINWSRGSTYYADSVKGRFTISRDNTNNTVYLQMNSLKPEDTAVYYCAARAGPGTPAYNSWGQGTQVTVSS
notes: Alpaca VHH picked from an immune phage library
粒细胞-巨噬细胞集落刺激因子 (human …) [1]
  Kd: 93.7 nM
粒细胞-巨噬细胞集落刺激因子 (human …) [2]
  Kd: 29.5 nM
